Consider five molecules from patent US20230051715A1 (MABWELL THERAPEUTICS, published 2023).

In general, EC50 refers to the concentration that produces a half-maximal response.

Numbering of substitutions follows the chain as printed. In names and notes the source's numbering stands.

Assay [1] concerns the target T1, cynomolgus monkey C1s (produced in house) (cynomolgus monkey, UniProt P09871 16-685 (human entry), limits assumed).
T1 construct: also called CyC1s
T1 chain: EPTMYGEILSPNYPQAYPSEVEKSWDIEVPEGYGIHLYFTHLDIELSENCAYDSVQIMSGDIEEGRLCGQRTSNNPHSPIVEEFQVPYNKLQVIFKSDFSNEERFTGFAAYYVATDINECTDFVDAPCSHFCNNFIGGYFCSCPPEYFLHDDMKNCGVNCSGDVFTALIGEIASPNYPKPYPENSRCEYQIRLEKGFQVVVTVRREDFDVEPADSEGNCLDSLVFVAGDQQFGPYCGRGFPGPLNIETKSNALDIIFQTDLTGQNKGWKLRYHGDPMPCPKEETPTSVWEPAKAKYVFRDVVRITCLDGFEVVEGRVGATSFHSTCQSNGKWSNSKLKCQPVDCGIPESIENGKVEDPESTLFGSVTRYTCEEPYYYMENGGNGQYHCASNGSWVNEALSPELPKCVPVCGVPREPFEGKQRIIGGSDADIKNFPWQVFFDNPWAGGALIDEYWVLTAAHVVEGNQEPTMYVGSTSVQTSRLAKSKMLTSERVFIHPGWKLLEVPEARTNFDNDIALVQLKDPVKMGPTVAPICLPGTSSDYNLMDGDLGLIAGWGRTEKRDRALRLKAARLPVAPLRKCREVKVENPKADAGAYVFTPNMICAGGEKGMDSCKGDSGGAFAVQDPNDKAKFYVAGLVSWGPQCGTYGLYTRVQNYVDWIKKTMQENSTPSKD
The assay can be described thus: ELISA, plate coated with 200 ng/well CyC1s, OD450nm. As to the method: The next morning, plates were blocked with SuperBlock T20 blocking buffer (Thermo Scientific 37536) for 1 h with gentle shaking. Then, various concentrations of anti-C1s antibodies diluted in SuperBlock T20 blocking buffer were added to the plates and incubated for 1 h with gentle shaking. Mouse IgG (Sigma-Aldrich I5381) and Human IgG1 (BioXCell BP0297) were used as negative controls. The plates were washed before incubating with HRP conjugated secondary antibodies diluted in SuperBlock T20 blocking buffer (goat anti-mouse IgG (H+L) cross-adsorbed secondary antibody HRP (Invitrogen G-21040) or goat anti-human IgG antibody, HRP conjugate (Millipore AP309P)) for 1 h with gentle shaking. At last, the plates were washed and color developed with ELISA liquid substrate (Sigma-Aldrich), followed by stopping the reaction with addition of the same volume of […] 1M H₂SO₄. Bound antibody was measured by absorbance at OD₄₅₀ₙₘ.
Background: In an ELISA, binding on a coated surface is turned into a signal by an enzyme label.

In assay [2] the target is T2, human C1s mutant M16 (R368H) (human, UniProt P09871 16-688).
T2 construct: The entry is the mutant itself
T2 sequence: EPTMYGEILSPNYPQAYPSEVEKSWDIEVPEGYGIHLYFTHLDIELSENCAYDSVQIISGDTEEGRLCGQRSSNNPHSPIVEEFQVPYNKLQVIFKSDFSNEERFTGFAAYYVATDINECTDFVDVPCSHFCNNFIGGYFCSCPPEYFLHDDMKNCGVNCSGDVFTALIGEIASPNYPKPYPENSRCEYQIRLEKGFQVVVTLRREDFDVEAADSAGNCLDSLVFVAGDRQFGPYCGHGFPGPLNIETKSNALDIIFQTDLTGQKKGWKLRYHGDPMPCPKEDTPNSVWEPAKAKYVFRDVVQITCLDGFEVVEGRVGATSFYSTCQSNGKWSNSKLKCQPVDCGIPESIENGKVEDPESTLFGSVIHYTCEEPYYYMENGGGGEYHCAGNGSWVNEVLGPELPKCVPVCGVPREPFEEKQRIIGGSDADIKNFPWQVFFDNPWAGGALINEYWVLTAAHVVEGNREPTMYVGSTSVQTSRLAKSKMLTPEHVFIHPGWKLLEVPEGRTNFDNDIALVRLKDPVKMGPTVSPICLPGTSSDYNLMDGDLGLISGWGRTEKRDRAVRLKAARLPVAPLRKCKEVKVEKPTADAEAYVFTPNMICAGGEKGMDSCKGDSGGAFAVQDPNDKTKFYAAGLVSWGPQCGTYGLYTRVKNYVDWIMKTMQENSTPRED
The assay can be described thus: ELISA, plate coated with human C1s mutant M16: R368H, OD450nm. How it is done: ELISA was carried out by first coating 96-well plates with 200 ng/well of full-length or truncated C1s proteins overnight. The next morning, plates were blocked with SuperBlock T20 blocking buffer (Thermo Scientific 37536) for 1 h with gentle shaking. Then, various concentrations of anti-C1s antibodies diluted in SuperBlock T20 blocking buffer were added to the plates and incubated for 1 h with gentle shaking. Mouse IgG (Sigma-Aldrich 15381) and human IgG1 (BioXCell BP0297) were used as negative controls. The plates were washed before incubating with HRP conjugated secondary antibodies diluted in SuperBlock T20 blocking buffer (goat anti-mouse IgG (H+L) cross-adsorbed secondary antibody HRP (Invitrogen G-21040) or goat anti-human IgG antibody, HRP conjugate (Millipore AP309P)) for 1 h with gentle shaking. At last, the plates were washed and color developed with ELISA liquid HRP substrate (Sigma-Aldrich), followed by stopping the reaction with addition of 1M H₂SO₄ in the same volume as the ELISA liquid substrate. Bound antibody was measured by absorbance at OD₄₅₀ₙₘ.
Binding of anti-C1s antibodies to mutants M1-M20 of human C1s was measured by ELISA as described in Example 4, and results are shown in FIGS. 6B-6U. All anti-C1s humanized variants including hz2-7(H1L2), hz2-8(H1L2 G80A) and hz2-8(H1L2 G80A/T82A) maintained strong binding properties to the majority (16 out of 20) of C1s mutants including M1 (FIG. 6B), M2 (FIG. 6C), M3 (FIG. 6D). M4 (FIG. 6E), M7 (FIG. 6H), M8 (FIG. 6I), M10 (FIG. 6K), M11 (FIG. 6L), M12 (FIG. 6M), M13 (FIG. 6N), M15 (FIG. 6P), M16 (FIG. 6Q), M17 (FIG. 6R), M18 (FIG. 6S), M19 (FIG. 6T) and M20 (FIG. 6U).

B1: Anti-C1s antibody 2-7 (antibody, human IgG1, kappa, V domains shown)
VH: EVKLEESGGGLVPPGGSMKLSCVASGFTFSNYFMNWVRQSPEKGLEWVAEIRLKFTNYATHYAESVEGRFTISRDDSKSSVYLQMNNLRAEDTGIYYCTRDYGSRNGYFDYWGQGTTLTVSS
VL: DIVMTQAAPSVPVTPGESVSISCRSSKSLLHSNGNTFLYWFLQRPGQSPQLLIYRMSNLASGVPDRFSGSGSGTAFTLRVSRVEAEDVGIYYCMQHLEYPYTFGGGTKLEIKT
notes: the HC/LC entries may hold it too; also called clone 2-7
Take B1: the response in assay [1] was half-maximal at 0.011 µg/mL (EC50).

B2: Anti-C1s antibody 2-8 (antibody, V domains shown)
VH: EVQLQQSGAELVRPGALVKLSCKASGFNIKEYYMHWVKQRPEQGLEWIGWIDPENGDTIYDPKFQGKASITADTSSNTAYLQLSSLTSEDTAVYYCARSRLFFAYWGQGTLVTVSA
VL: DIVMTQSHKFMSTSVGDRVSFTCKASQDVRTAVDWYQQKPGQSPKLLIYSASYRYTGVPDRFTGTGSGTDFTFTISSVQAEDLAVYFCQQQYTTPYTFGGGTKLEIKT
notes: the HC/LC entries may hold it too; also called clone 2-8
With B2, the EC50 in assay [1] was 0.012 µg/mL.

B3: Anti-C1s antibody hz2-8 (H1L2 G80A) (antibody, V domains shown)
VH: QVQLVQSGAEVKKPGASVKVSCKASGFNIKEYYMHWVRQAPEQGLEWMGWIDPENADTIYAQKFQGRVTITADTSTNTAYMELSSLRSEDTAVYYCARSRLFFAYWGQGTLVTVSS
VL: DIQMTQSPKSLSASVGDRVTITCRASQDVRTALDWYQQKPGQSPKLLIYSASYRYSGVPSRFSGSGSGTDFTLTISSLQPEDFATYYCQQQYTTPYTFGQGTKLEIKR
notes: Humanized variant with G80A in HC CDR2 (already in the entry), human IgG1 / kappa
B3 returned an EC50 in assay [2] of 0.006 µg/mL.

B4: Anti-C1s antibody hz2-8 (H1L2 G80A/T82A) (antibody, V domains shown)
VH: B3 VH with T58A
VL: B3 VL
notes: Humanized variant with G80A and T82A in HC CDR2 (already in the entry), human IgG1 / kappa
As to B4, the EC50 was determined as 0.01 µg/mL in assay [1] and 0.009 µg/mL in assay [2].

B5: Anti-C1s antibody hz2-7(H1L2) (antibody, V domains shown)
VH: EVQLLESGGGLVQPGGSLRLSCAASGFTFSNYFMNWVRQAPGKGLEWVSEIRLKFTNYATHYADSVKGRFTISRDDSKSTLYLQMNSLRAEDTAVYYCTRDYGSRNGYFDYWGQGTLVTVSS
VL: DIVMTQTPLSLPVTPGEPASISCRSSKSLLHSNGNTFLYWFLQKPGQSPQLLIYRMSNLASGVPDRFSGSGSGTDFTLKISRVEAEDVGVYYCMQHLEYPYTFGGGTKLEIKR
notes: Humanized, human IgG1 / kappa; also called hz2-7(1L2)
As for B5, the EC50 in assay [1] turned out to be 0.015 µg/mL; in assay [2] it was 0.006 µg/mL.
